From patent US20080311034A1 (published 2008)

T1: recombinant human His-tagged FcγRIIa (R&D Systems #1330-CD-050) (human, UniProt P12318 36-218, limits assumed)
T1 construct: Bought; also called CD32a; recombinant, soluble, human FcγRIIa
T1 sequence (looked up): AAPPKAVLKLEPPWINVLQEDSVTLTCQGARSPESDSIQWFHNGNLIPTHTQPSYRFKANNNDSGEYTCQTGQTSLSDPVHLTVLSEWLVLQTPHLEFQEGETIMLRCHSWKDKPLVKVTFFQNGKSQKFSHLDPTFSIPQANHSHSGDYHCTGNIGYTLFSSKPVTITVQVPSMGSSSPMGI

T2: recombinant human FcγRIIb (R&D Systems #1875-CD-050) (human, UniProt P31994 46-217, limits assumed)
T2 construct: Bought; also called CD32b; recombinant, soluble, human FcγRIIb
T2 sequence (looked up): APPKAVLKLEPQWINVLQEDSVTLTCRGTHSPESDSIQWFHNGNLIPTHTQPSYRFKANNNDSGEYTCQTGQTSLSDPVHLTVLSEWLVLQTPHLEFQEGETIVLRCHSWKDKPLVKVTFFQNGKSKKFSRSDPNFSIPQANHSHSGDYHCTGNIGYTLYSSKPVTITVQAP


Legend:
[1] = molecular target: FcγRIIIa on NK cells of human PBMC (human, UniProt P08637 17-254); experiment: cell-based or functional assay
Sequence of FcγRIIIa on NK cells of human PBMC (P08637 17-254): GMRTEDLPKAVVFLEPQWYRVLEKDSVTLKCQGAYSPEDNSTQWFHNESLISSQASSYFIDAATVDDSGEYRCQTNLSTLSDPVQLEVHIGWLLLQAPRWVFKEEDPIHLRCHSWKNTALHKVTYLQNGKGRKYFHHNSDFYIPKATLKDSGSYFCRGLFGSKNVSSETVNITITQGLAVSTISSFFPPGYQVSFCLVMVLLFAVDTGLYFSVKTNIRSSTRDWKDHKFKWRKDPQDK

[2] = molecular target: T1, recombinant human His-tagged FcγRIIa …; experiment: AlphaScreen, His-tagged FcγRIIa on nickel acceptor beads
Protocol: (§1) FcγRIIa (CD32a) AlphaScreen—Nickel acceptor beads (Perkin Elmer #6760619C) were diluted 1:50 in assay buffer (PBS, pH 7.4, 4 mg/ml BSA, 0.01% Tween-20), and 27.5 μl were added to each well of a Nunc V-bottom polypropylene plate (VWR # 62409-108) (Powers G., Notebook 9006, pp. 169-175, 182-185). A 2.0 μg/ml solution of recombinant human His-tagged FcγRIIa (R&D Systems #1330-CD-050) was prepared in assay buffer and 27.5 μl added to each well of a separate Nunc V bottom polypropylene plate. Titrations of test Abs were prepared in the Nunc V bottom polypropylene plate starting at 30 μg/ml. A 2 μg/ml solution of biotinylated goat F(ab′)₂ anti-human IgG F(ab′)₂ (Jackson Immunoresearch #109-066-097) was prepared in assay buffer and 27.5 μl added to each well of another Nunc V bottom polypropylene plate. A 1:50 dilution of streptavidin donor beads (PerkinElmer # 6760002) was prepared in assay buffer and 27.5 μl added to each well of another Nunc V bottom polypropylene plate. A volume of 5 μl of each reagent was added to the corresponding quadrants of a low-volume, non-binding white 384-well plate (Corning # 3673) in the following order: acceptor beads, FcγRIIa, test Ab, biotinylated anti-human IgG F(ab′)₂, and streptavidin donor beads. The plates were incubated for 30 minutes with shaking and the O.D.s determined using an Envision plate reader.

[3] = molecular target: T2, recombinant human FcγRIIb (R&D Systems …); experiment: AlphaScreen, FcγRIIb on nickel acceptor beads
Protocol: as §1
FcγRIIb (CD32b) AlphaScreen—The assay was performed as described above for FcγRIIa except that FcγRIIa was replaced with FcγRIIb (R&D Systems #1875-CD-050).

[4] = molecular target: T3, recombinant human His-tagged FcγRIIIa (extracellular domain made at Centocor) (human, UniProt P08637 17-208); experiment: ELISA, His-tagged FcγRIIIa captured on HisGrab plate
T3 construct: extracellular domain; also called CD16a; recombinant, soluble, human FcγRIIIa
T3 sequence (P08637 17-208): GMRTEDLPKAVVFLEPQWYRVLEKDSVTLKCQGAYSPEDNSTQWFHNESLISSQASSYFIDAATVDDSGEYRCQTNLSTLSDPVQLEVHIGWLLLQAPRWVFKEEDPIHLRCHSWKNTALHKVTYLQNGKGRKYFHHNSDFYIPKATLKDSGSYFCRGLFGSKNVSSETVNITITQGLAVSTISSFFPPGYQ
Protocol: FcγRIIIa (CD16a) ELISA—A human FcγRIIIa binding assay was done in ELISA format similar to the assay for FcγRI above. 50 μl of a 2 μg/ml solution of recombinant human His-tagged FcγRIIIa (extracellular domain made at Centocor) in ELISA buffer (PBS, 4 mg/ml BSA, 0.01% Tween-20) was added to each well of HisGrab 96 well plates (Pierce #15142) (Powers G., Notebook 10378, 19-23). The plate was incubated for 3 hours at room temp. The plates were blocked with 200 μl of Starting Block (Pierce #15142) for 30 min, and then washed 3× with 300 μl of wash buffer (PBS, 0.01% Tween-20) on a plate washer. Serial dilutions of the CNTO 860 test samples were made in Starting Block buffer and 50 μl per well of each titration were added in duplicate to the FcγRIIIa-coated plates. The plates were incubated for 1 hour. The plates were washed 3× with 300 μl of wash buffer on a plate washer. 50 μl of a 1:10,000 dilution of HRP-labeled goat F(ab′)2 anti-human IgG F(ab′)2 (Jackson Immunoresearch # 109-036-097) in Starting Block buffer was added to each well. The plates were incubated for 30 minutes. The plates were washed 3× with 300 μl of wash buffer on the plate washer. 50 μl per well TMB substrate (RDI #RDI-TMBSU-1L) was added to each well and developed for 3-5 minutes. The reaction was stopped by adding 100 μl […] sulfuric acid. The plates were read at OD450 on an Envision plate reader. Antibody concentration vs OD450 values were graphed for each CNTO 860 variant and the antibody concentration needed to achieve an OD450 reading of 0.14 established by interpolation within each data curve.

EC25 (ng/ml), ADCC of HCT116 cells by human PBMC [1] [ng/mL] | concentration (ng/ml) required for a set O.D. signal [2] [ng/mL] | concentration (ng/ml) required for an O.D. value of 200,000 [3] [ng/mL] | concentration (ng/ml) required for an O.D. value of 0.14 [4] [ng/mL] | Binder
0.3 | 60 | 75 | 165 | YB2/0-CNTO 860 I332E (antibody, human IgG1, kappa, Heavy chain N297 carries the YB2/0-type low-fucose N-linked glycan; not carried by the letters., IgG1/kappa Fc variant; stably expressed in YB2/0 cells (p4148/p2402), low-fucose glycan; EU numbering; also called I332E (YB2/0 cell-derived); I332E from YB2/0 cells; copies: 2 + 2) heavy: not shown light: DIQMTQSPSSLSASVGDRVTITCKASQDIRKYLNWYQQKPGKAPKLLIYYATSLADGVPSRFSGSGSGTDYTFTISSLQPEDIATYYCLQHGESPYTFGQGTKLEITRTVAAPSVFIFPPSDEQLKSGTASVVCLLNNFYPREAKVQWKVDNALQSGNSQESVTEQDSKDSTYSLSSTLTLSKADYEKHKVYACEVTHQGLSSPVTKSFNRGEC
0.7 | 450 | 37000 | 1200 | YB2/0-CNTO 860 A330I (antibody, IgG1, N-linked glycan at heavy chain Asn297 (YB2/0-type, low fucose); not carried by the letters, IgG1/kappa Fc variant; stably expressed in YB2/0 cells (p4177/p2402); EU numbering; also called A330I (YB2/0 cell-derived); A330I mutant expressed in YB2/0 cells; copies: 2 + 2) heavy: not shown light: DIQMTQSPSSLSASVGDRVTITCKASQDIRKYLNWYQQKPGKAPKLLIYYATSLADGVPSRFSGSGSGTDYTFTISSLQPEDIATYYCLQHGESPYTFGQGTKLEITRTVAAPSVFIFPPSDEQLKSGTASVVCLLNNFYPREAKVQWKVDNALQSGNSQESVTEQDSKDSTYSLSSTLTLSKADYEKHKVYACEVTHQGLSSPVTKSFNRGEC
 | 2250 | 75000 | 19000 | CHO-CNTO 860 A330I (antibody, IgG1, N-linked glycan at Asn297 of the heavy chain (CHO-type, highly fucosylated); not carried by the letters, IgG1/kappa Fc variant; EU numbering; also called A330I (CHO cell-derived); copies: 2 + 2) heavy: not shown light: DIQMTQSPSSLSASVGDRVTITCKASQDIRKYLNWYQQKPGKAPKLLIYYATSLADGVPSRFSGSGSGTDYTFTISSLQPEDIATYYCLQHGESPYTFGQGTKLEITRTVAAPSVFIFPPSDEQLKSGTASVVCLLNNFYPREAKVQWKVDNALQSGNSQESVTEQDSKDSTYSLSSTLTLSKADYEKHKVYACEVTHQGLSSPVTKSFNRGEC
0.75 | 76 | 105 | 750 | CHO-CNTO 860 I332E (antibody, N-linked glycan at Asn297 of the heavy chain (CHO-type, highly fucosylated); not carried by the letters, IgG1/kappa Fc variant; transiently expressed in CHO cells (p4157/p4146); also called I332E (CHO cell-derived); I332E from CHO cells; copies: 2 + 2) heavy: not shown light: DIQMTQSPSSLSASVGDRVTITCKASQDIRKYLNWYQQKPGKAPKLLIYYATSLADGVPSRFSGSGSGTDYTFTISSLQPEDIATYYCLQHGESPYTFGQGTKLEITRTVAAPSVFIFPPSDEQLKSGTASVVCLLNNFYPREAKVQWKVDNALQSGNSQESVTEQDSKDSTYSLSSTLTLSKADYEKHKVYACEVTHQGLSSPVTKSFNRGEC
1.2 | 900 | 4500 | 520 | CHO-CNTO 860 I332E/A330I (antibody, human IgG1, kappa, Heavy chain N297 carries the CHO-type N-linked glycan (about 95% fucosylated); not carried by the letters., IgG1/kappa Fc variant; transiently expressed in CHO cells (p4185/p4146); EU numbering; also called A330I/I332E (CHO cell-derived); A330I/I332E variant from CHO cells; copies: 2 + 2) heavy: not shown light: DIQMTQSPSSLSASVGDRVTITCKASQDIRKYLNWYQQKPGKAPKLLIYYATSLADGVPSRFSGSGSGTDYTFTISSLQPEDIATYYCLQHGESPYTFGQGTKLEITRTVAAPSVFIFPPSDEQLKSGTASVVCLLNNFYPREAKVQWKVDNALQSGNSQESVTEQDSKDSTYSLSSTLTLSKADYEKHKVYACEVTHQGLSSPVTKSFNRGEC
0.15 | 1500 | 10500 | 240 | YB2/0-CNTO 860 A330I/I332E (antibody, human IgG1, kappa, N-linked glycan at heavy chain Asn297 (YB2/0-type, low fucose); not carried by the letters, IgG1/kappa Fc variant; stably expressed in YB2/0 cells (p4178/p2402); EU numbering; also called A330I/I332E (YB2/0 cell-derived); A330I/I332E from YB2/0 cells; copies: 2 + 2) heavy: not shown light: DIQMTQSPSSLSASVGDRVTITCKASQDIRKYLNWYQQKPGKAPKLLIYYATSLADGVPSRFSGSGSGTDYTFTISSLQPEDIATYYCLQHGESPYTFGQGTKLEITRTVAAPSVFIFPPSDEQLKSGTASVVCLLNNFYPREAKVQWKVDNALQSGNSQESVTEQDSKDSTYSLSSTLTLSKADYEKHKVYACEVTHQGLSSPVTKSFNRGEC
